Data as given in patent publication US20240327544A1.

Target: human FcγRIa expressed on transiently transfected CHO-S cells (human) (UniProt P12314)
Assay: flow cytometry, CHO-S cells transiently expressing human FcγRIa, PE-conjugated goat anti-human IgG F(ab')2, % PE+ cells

Chain of human FcγRIa expressed on transiently transfected CHO-S cells (human) (P12314 16-374): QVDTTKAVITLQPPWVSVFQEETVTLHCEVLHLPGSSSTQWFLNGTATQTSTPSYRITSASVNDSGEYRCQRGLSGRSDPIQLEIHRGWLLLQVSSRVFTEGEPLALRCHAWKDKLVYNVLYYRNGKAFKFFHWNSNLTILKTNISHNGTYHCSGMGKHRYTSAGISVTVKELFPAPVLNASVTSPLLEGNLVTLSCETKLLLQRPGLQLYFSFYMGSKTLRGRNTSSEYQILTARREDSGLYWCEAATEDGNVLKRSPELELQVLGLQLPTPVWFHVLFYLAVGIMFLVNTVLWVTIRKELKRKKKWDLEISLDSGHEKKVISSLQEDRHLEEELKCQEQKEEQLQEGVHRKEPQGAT

EC50 (read off the curve): 0.2 µg/mL
Substance: nivolumab (antibody)
